Assays:
[1] = target: plasminogen (affinity column for M. pneumoniae lysate; microscale thermophoresis); assay: MST; fluorescently labelled host protein, Ef-Tu unlabelled; 40%, 60% and 80% MST power, 30 s
actin = actin (UniProt P68135); assay: MST
fetuin = fetuin (UniProt P12763); assay: MST; fluorescently labelled host protein, Ef-Tu unlabelled; 40%, 60% and 80% MST power, 30 s
Chain of UniProt P12763 (P12763 19-359): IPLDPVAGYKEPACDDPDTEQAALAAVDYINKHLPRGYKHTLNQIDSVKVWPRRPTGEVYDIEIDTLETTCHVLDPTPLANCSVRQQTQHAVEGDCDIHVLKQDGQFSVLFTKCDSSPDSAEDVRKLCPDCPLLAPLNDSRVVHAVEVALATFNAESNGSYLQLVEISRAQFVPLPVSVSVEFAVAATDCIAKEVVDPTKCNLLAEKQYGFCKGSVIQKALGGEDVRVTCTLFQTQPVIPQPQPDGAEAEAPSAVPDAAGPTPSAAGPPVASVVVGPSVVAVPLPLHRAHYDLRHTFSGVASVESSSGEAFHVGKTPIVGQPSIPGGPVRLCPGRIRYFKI

Row | Substance | Kd [1] [nM] | Kd (actin) [nM] | Kd (fetuin) [nM]
1 | recombinant Elongation factor Tu of Mycoplasma pneumoniae (from UniProt P23568 1-394) (natural protein) | 933 | 19 | 
2 | recombinant Elongation factor Tu of Mycoplasma pneumoniae (from UniProt P23568 1-394) (natural protein; other documents disagree on this pair) |  |  | 53
